# From patent publication US9750803B2, “Lipid vesicle compositions and methods of use” (priority 2010, dated 2017)
# B1: soluble VMP: recombinant vivax malaria protein (VMP001, SEQ ID NO:1) given as soluble protein with MPLA, Montanide or alum (protein)
# chain: THCGHNVDLSKAINLNGVNFNNVDASSLGAAHVGQSASRGRGLGENPDDEEGDAKKKKDGKKAEPKNPRENKLKQPGDRADGQAAGNGAGGQPAGDRAAGQPAGDRAAGQPAGDGAAGQPAGDRADGQPAGDRADGQPAGDRAAGQAAGNGAGGQAAANGAGNQPGGGNAANKKAEDAGGNAGGNAGGQGQNNEGANAPNEKSVKEYLDKVRATVGTEWTPCSVTCGVGVRVRRRVNAANKKPEDLTLNDLETDVCT
# modifications: VMP Amino Acid Sequence
# B2: ovalbumin (protein, UniProt P01012 2-386, looked up)
# Ovalbumin: GSIGAASMEFCFDVFKELKVHHANENIFYCPIAIMSALAMVYLGAKDSTRTQINKVVRFDKLPGFGDSIEAQCGTSVNVHSSLRDILNQITKPNDVYSFSLASRLYAEERYPILPEYLQCVKELYRGGLEPINFQTAADQARELINSWVESQTNGIIRNVLQPSSVDSQTAMVLVNAIVFKGLWEKAFKDEDTQAMPFRVTEQESKPVQMMYQIGLFRVASMASEKMKILELPFASGTMSMLVLLPDEVSGLEQLESIINFEKLTEWTSSNVMEERKIKVYLPRMKMEEKYNLTSVLMAMGITDVFSSSANLSGISSAESLKISQAVHAAHAEINEAGREVVGSAEAGVDAASVSEEFRADHPFLFCIKHIATNAVLFFGRCVSP
# What was measured:
# C57Bl/6 mice [1] = test: Example 2 vaccination: anti-OVA IgG serum titers by ELISA; assay type: in vivo, mouse; conditions: low dose of MPLA (0.1 μg), two boosts, day 56
# Procedure: (§1) Vaccination study with ICMVs. Groups of C57Bl/6 mice (Jackson Laboratories) were immunized s.c. in the tail base with indicated doses of OVA (with or without TLR agonist MPLA). Frequencies of OVA-specific CD8^+ T-cells and their phenotypes elicited by immunization were determined by flow cytometry analysis of PBMCs at selected time points following staining with DAPI (to discriminate live/dead cells), anti-CD8 alpha, anti-CD44, anti-CD62L, and […]/H-2K^b peptide-MHC tetramers (Becton Dickinson). To assess functionality of primed CD8^+ T-cells, PBMCs were stimulated ex vivo with 1 μM OVA-peptide […] for 6 hrs with GolgiPlug (Becton Dickinson), fixed, permeabilized, stained with anti-IFN-gamma and CD8 alpha, and analyzed by flow cytometry. Anti-OVA IgG titers, defined as the dilution of sera at which 450 nm OD reading is 0.5, were determined by ELISA analysis of sera from immunized mice. Animals were cared for following NIH, state, and local guidelines.
# CD45.1+ recipient mice = test: Expansion of adoptively transferred OT-II CD4+ T-cells after immunization; assay type: in vivo, mouse; conditions: eight days post priming
# Procedure: (§2) Germinal center and follicular helper T cell analysis. Mice were immunized s.c. with 5 μg of MPLA and 100 μg of OVA-alexa fluor 555 in either soluble or ICMV formulations (lipids labeled with DiD). At serial time-points, dLNs were isolated, flash-frozen, cryo-sectioned, and examined by confocal microscopy. To identify cell types associated with particles, dLNs were isolated on d 1 or 4, stained with anti-CD11b, anti-CD11c, anti-CD169, anti-CD205, and F4/80, and analyzed by flow cytometry. To assess GC formation, dLNs were isolated on d14 from mice immunized with 1 μg of unlabeled soluble VMP or VMP-ICMVs (both with 0.1 μg MPLA), stained with anti-B220, anti-IgD, anti-GL-7 (BD), peanut agglutinin (Vectorlabs, Burlingame, Calif.), and analyzed by flow cytometry or confocal microscopy. To monitor antigen-specific CD4+ T-cells, […] OVA-specific CD4+ T cells from OT-II (CD45.2+) mice were adoptively transferred i.v. into recipient congenic CD45.1+ mice. After 1 d, recipient mice were immunized s.c. with 10 μg of OVA in either soluble or ICMV formulations, both with 1 μg MPLA. A second comparison group of mice were immunized s.c. with 100 μg OVA in alum. The frequencies of OVA-specific CD4+ T cells and their phenotypes in spleens and dLNs were determined by flow cytometry analysis, following staining with DAPI, anti-CD4, anti-CD45.2, anti-PD-1, and anti-CXCR5 (BD).
# C57Bl/6 mice [2] = test: Example 2 vaccination: tetramer+ OVA-specific CD8+ T-cells in PBMCs; assay type: in vivo, mouse; conditions: mixed with 0.1 μg MPLA
# Procedure: as §1
# [3] = tested on: OVA-specific naïve OT-I CD8+ T-cells; test: CFSE dilution proliferation assay of OT-I CD8+ T-cells co-cultured with pulsed splenic DCs; assay type: cell-based; conditions: DCs pulsed with 0.7 μg/mL OVA equivalent, 0.1 μg/mL MPLA, day 3
# Procedure: FIGS. 7A-7C. In vitro stimulation of immune responses by ICMVs supplemented with the TLR agonist MPLA. (A) Flow cytometry analysis of expression of the cell surface costimulatory markers CD40, CD80, and CD86 on splenic dendritic cells (DCs) after 18 hr incubation with 0.7 μg/mL soluble OVA, equivalent doses of OVA loaded in ICMVs, or ICMVs loaded with an irrelevant protein (vivax malaria protein, VMP), in the presence or absence of 0.1 μg/mL MPLA. (B) Splenic DCs were incubated for 18 hr with 10 μg/mL […] peptide (OVA257-264), 5.0 μg/mL soluble OVA, equivalent doses of OVA loaded in ICMVs, or VMP-loaded ICMVs in the presence or absence of 0.05 μg/mL MPLA, and the extent of cross-presentation of OVA was assessed by flow cytometry analysis of cells stained with the 25-D1.16 mAb that recognizes […] complexed with H-2K^b. (C) 5-(6)-carboxyfluorescein diacetate succinimidyl diester (CFSE)-labeled OVA-specific naïve OT-I CD8^+ T-cells were co-cultured with syngeneic splenic DCs pulsed with soluble 0.7 μg/mL OVA mixed with 0.1 μg/mL MPLA, or equivalent doses of OVA-loaded ICMVs mixed with MPLA. Empty ICMVs without antigen or ICMVs loaded with the irrelevant antigen VMP were included as negative controls. Proliferation of CD8^+ T-cells was assessed on day 3 by flow cytometry analysis of the dilution of CFSE in the OT-I CD8^+ T-cells; shown are histograms of CFSE fluorescence. […]
# C57Bl/6 mice [4] = test: Epitope analysis of anti-VMP sera on VMP peptide fragments; assay type: in vivo, mouse; conditions: d 90
# Procedure: (§3) Immunizations. Animals were cared for following NIH, state, and local guidelines. Groups of 6-10-wk old female C57Bl/6 mice (Jackson Laboratories, Bar Harbor, Me.) were immunized s.c. at the tail base with VMP-ICMVs and indicated doses of MPLA (Sigma-Aldrich, St. Louis, Mo.) in 100 μL PBS on day 0 and 21. Control immunizations with soluble VMP were performed using MPLA, Montanide ISA-50 V2 (Seppic, N.J.), or alum (Imject alum, Pierce, Rockford, Ill.) at an adjuvant:protein solution vol. ratio of 1:1 following the manufacturer's instructions.
# (§4) Characterization of anti-VMP humoral responses. Sera were analyzed for IgG, IgG1, and IgG2c antibodies by ELISA using VMP-coated plates (Bell et al. 2009 Vaccine 27:1448-1453). Anti-VMP IgG titers were defined as the lowest serum dilution at which the ELISA OD reading was ≧0.5. Avidity measurements were performed by incubating plates with 6 M urea for 10 min at 20° C. to remove weakly bound IgG prior to addition of detection Ab. The avidity index was defined as (IgG titer with 6 M urea/IgG titer without urea)×100. […] Splenocytes isolated 7 d after boost vaccinations were restimulated ex vivo with either PBS or VMP-ICMV at 2 μg/ml, and on d2, cytokine levels in the culture supernatants were measured by flow cytometry (Cytometric Bead Array, BD).
# C57Bl/6 mice [5] = test: Example 3 immunization: anti-VMP IgG serum titers and isotypes by ELISA; assay type: in vivo, mouse
# Procedure: as §3, §4
# mice [6] = test: Germinal center analysis in draining lymph nodes; assay type: in vivo, mouse; conditions: 100 ng VMP, with MPLA, histological analysis
# Procedure: as §2, with “To assess GC formation, dLNs were isolated on d14 from mice immunized with 1 μg of unlabeled soluble VMP or VMP-ICMVs (both with 0.1 μg MPLA), stained with anti-B220, anti-IgD, anti-GL-7 (BD), peanut agglutinin (Vectorlabs, Burlingame, Calif.), and analyzed by flow cytometry or confocal microscopy.” left out
# mice [7] = test: Antigen delivery to draining lymph nodes (histology at serial time-points); assay type: in vivo, mouse; conditions: s.c., with MPLA
# Procedure: as §2
molecule,measurement,setting,value
ovalbumin [soluble OVA],Anti-OVA serum IgG response,C57Bl/6 mice [1],barely detectable antibody response
same,"Expansion of OT-II CD4+ T-cells in spleens, fold compared to PBS",CD45.1+ recipient mice,~6.3 fold
same,Antigen-specific T-cell expansion by tetramer staining,C57Bl/6 mice [2],barely detectable
same,Proliferation of OT-I CD8+ T-cells,[3],weak T-cell responses
B1,Recognition of the AGDR motif by sera,C57Bl/6 mice [4],did not recognize
same,Fold more protein required to elicit a response than VMP-ICMVs,C57Bl/6 mice [5]; mixed with MPLA or adjuvanted with Montanide or alum,at least 10 fold
same,Antigen-specific IgG isotype response,"C57Bl/6 mice [5]; with MPLA, d 90",only Th2-skewed IgG1 antibodies
same,GCs per dLN,mice [6],complete absence
B2,Time at which antigen was detected in dLNs,mice [7],≤ 4 h
